From the supplement of paper PMC11246515
± gives the standard deviation of the averaged measurements.

Assay: total protein half-life in vivo (active degradation + dilution); higher = more stable protein
[1] = E. coli NCM3722 delta-clpP delta-lon delta-hslV, growth: N-lim chemostat, doubling time 6 h
[2] = E. coli NCM3722 delta-clpP, growth: N-lim chemostat, doubling time 6 h
[3] = E. coli NCM3722 delta-hslV, growth: N-lim chemostat, doubling time 6 h
[4] = E. coli NCM3722 delta-lon, growth: N-lim chemostat, doubling time 6 h
[5] = E. coli NCM3722 delta-smpB, growth: N-lim chemostat, doubling time 6 h
[6] = wild type E. coli NCM3722, growth: C-lim chemostat, doubling time 3 h
[7] = wild type E. coli NCM3722, growth: C-lim chemostat, doubling time 6 h
[8] = wild type E. coli NCM3722, growth: C-lim chemostat, doubling time 12 h
[9] = wild type E. coli NCM3722, growth: N-lim chemostat, doubling time 6 h
[10] = wild type E. coli NCM3722, growth: N-lim chemostat, doubling time 12 h
[11] = wild type E. coli NCM3722, growth: P-lim chemostat, doubling time 6 h
[12] = wild type E. coli NCM3722, growth: P-lim chemostat, doubling time 12 h

Row | Sequence | total protein half-life in vivo [1] | total protein half-life in vivo [2] | total protein half-life in vivo [3] | total protein half-life in vivo [4] | total protein half-life in vivo [5] | total protein half-life in vivo [6] | total protein half-life in vivo [7] | total protein half-life in vivo [8] | total protein half-life in vivo [9] | total protein half-life in vivo [10] | total protein half-life in vivo [11] | total protein half-life in vivo [12]
1 | MYLYIETLKQRLDAINQLRVDRALAAMGPAFQQVYSLLPTLLHYHHPLMPGYLDGNVPKGICLYTPDETQRHYLNELELYRGMSVQDPPKGELPITGVYTMGSTSSVGQSCSSDLDIWVCHQSWLDSEERQLLQRKCSLLENWAASLGVEVSFFLIDENRFRHNESGSLGGEDCGSTQHILLLDEFYRTAVRLAGKRILWNMVPCDEEEHYDDYVMTLYAQGVLTPNEWLDLGGLSSLSAEEYFGASLWQLYKSIDSPYKAVLKTLLLEAYSWEYPNPRLLAKDIKQRLHDGEIVSFGLDPYCMMLERVTEYLTAIEDFTRLDLVRRCFYLKVCEKLSRERACVGWRRAVLSQLVSEWGWDEARLAMLDNRANWKIDQVREAHNELLDAMMQSYRNLIRFARRNNLSVSASPQDIGVLTRKLYAAFEALPGKVTLVNPQISPDLSEPNLTFIYVPPGRANRSGWYLYNRAPNIESIISHQPLEYNRYLNKLVAWAWFNGLLTSRTRLYIKGNGIVDLPKLQEMVADVSHHFPLRLPAPTPKALYSPCEIRHLAIIVNLEYDPTAAFRNQVVHFDFRKLDVFSFGENQNCLVGSVDLLYRNSWNEVRTLHFNGEQSMIEALKTILGKMHQDAAPPDSVEVFCYSQHLRGLIRTRVQQLVSECIELRLSSTRQETGRFKALRVSGQTWGLFFERLNVSVQKLENAIEFYGAISHNKLHGLSVQVETNHVKLPAVVDGFASEGIIQFFFEETQDENGFNIYILDESNRVEVYHHCEGSKEELVRDVSRFYSSSHDRFTYGSSFINFNLPQFYQIVKVDGREQVIPFRTKSIGNMPPANQDHDTPLLQQYFS | 4.23 ± 0.18 h | 3.635 ± 0.028 h | 1.14 ± 0.25 h | 1.04 ± 0.087 h | 1.36 ± 0.081 h | 0.845 ± 0.015 h | 1.19 h | 1.66 ± 0.22 h | 1.27 ± 0.07 h | 1.72 ± 0.053 h | 2.155 ± 0.0068 h | 3.73 ± 0.4 h
2 | MIIHFTLNGAPQELTVNPGENVQKLLFNMGMHSVRNSDDGFGFAGSDAIIFNGNIVNASLLIAAQLEKADIRTAESLGKWNELSLVQQAMVDVGVVQSGYNDPAAALIITDLLDRIAAPTREEIDDALSGLFSRDAGWQQYYQVIELAVARKNNPQATIDIAPTFRDDLEVIGKHYPKTDAAKMVQAKPCYVEDRVTADACVIKMLRSPHAHALITHLDVSKAEALPGVVHVITHLNCPDIYYTPGGQSAPEPSPLDRRMFGKKMRHVGDRVAAVVAESEEIALEALKLIDVEYEVLKPVMSIDEAMAEDAPVVHDEPVVYVAGAPDTLEDDNSHAAQRGEHMIINFPIGSRPRKNIAASIHGHIGDMDKGFADADVIIERTYNSTQAQQCPTETHICFTRMDGDRLVIHASTQVPWHLRRQVARLVGMKQHKVHVIKERVGGGFGSKQDILLEEVCAWATCVTGRPVLFRYTREEEFIANTSRHVAKVTVKLGAKKDGRLTAVKMDFRANTGPYGNHSLTVPCNGPALSLPLYPCDNVDFQVTTYYSNICPNGAYQGYGAPKGNFAITMALAELAEQLQIDQLEIIERNRVHEGQELKILGAIGEGKAPTSVPSAASCALEEILRQGREMIQWSSPKPQNGDWHIGRGVAIIMQKSGIPDIDQANCMIKLESDGTFIVHSGGADIGTGLDTVVTKLAAEVLHCPPQDVHVISGDTDHALFDKGAYASSGTCFSGNAARLAAENLREKILFHGAQMLGEPVADVQLATPGVVRGKKGEVSFGDIAHKGETGTGFGSLVGTGSYITPDFAFPYGANFAEVAVNTRTGEIRLDKFYALLDCGTPVNPELALGQIYGATLRAIGHSMSEEIIYDAEGHPLTRDLRSYGAPKIGDIPRDFRAVLVPSDDKVGPFGAKSISEIGVNGAAPAIATAIHDACGIWLREWHFTPEKILTALEKI | > 8 h |  |  |  |  |  |  | 9.16 h |  |  |  | 
3 | MQILADLLNTIPAIDSTAMSRAQRHIDGLLKPVGSLGKLEVLAIQLAGMPGLNGIPHVGKKAVLVMCADHGVWEEGVAISPKEVTAIQAENMTRGTTGVCVLAEQAGANVHVIDVGIDTAEPIPGLINMRVARGSGNIASAPAMSRRQAEKLLLDVICYTQELAKNGVTLFGVGELGMANTTPAAAIVSTITGRDPEEVVGIGANLPTDKLANKIDVVRRAITLNQPNPQDGVDVLAKVGGFDLVGIAGVMLGAASCGLPVLLDGFLSYAAALAACQMSPAIKPYLIPSHLSAEKGARIALSHLGLEPYLNMEMRLGEGSGAALAMPIIEAACAIYNNMGELAASNIVLPGNTTSDLNS | 4.974 ± 0.0055 h | 4.84 ± 1.1 h | 3.39 ± 0.091 h |  | 3.17 ± 0.12 h | 3 ± 0.2 h | 4.63 ± 0.68 h | 8.1 ± 0.064 h | 3.27 ± 0.16 h | 5.18 ± 0.075 h | 4.994 ± 0.018 h | 9.91 ± 0.96 h
4 | MTKTVSTSKKPRKQHSPEFRSEALKLAERIGVTAAARELSLYESQLYNWRSKQQNQQTSSERELEMSTEIARLKRQLAERDEELAILQKAATYFAKRLK [P0CF66] |  |  |  |  |  |  |  | 3.53 h |  |  |  | 5.25 ± 0.29 h
5 | MTQTYNADAIEVLTGLEPVRRRPGMYTDTTRPNHLGQEVIDNSVDEALAGHAKRVDVILHADQSLEVIDDGRGMPVDIHPEEGVPAVELILCRLHAGGKFSNKNYQFSGGLHGVGISVVNALSKRVEVNVRRDGQVYNIAFENGEKVQDLQVVGTCGKRNTGTSVHFWPDETFFDSPRFSVSRLTHVLKAKAVLCPGVEITFKDEINNTEQRWCYQDGLNDYLAEAVNGLPTLPEKPFIGNFAGDTEAVDWALLWLPEGGELLTESYVNLIPTMQGGTHVNGLRQGLLDAMREFCEYRNILPRGVKLSAEDIWDRCAYVLSVKMQDPQFAGQTKERLSSRQCAAFVSGVVKDAFILWLNQNVQAAELLAEMAISSAQRRMRAAKKVVRKKLTSGPALPGKLADCTAQDLNRTELFLVEGDSAGGSAKQARDREYQAIMPLKGKILNTWEVSSDEVLASQEVHDISVAIGIDPDSDDLSQLRYGKICILADADSDGLHIATLLCALFVKHFRALVKHGHVYVALPPLYRIDLGKEVYYALTEEEKEGVLEQLKRKKGKPNVQRFKGLGEMNPMQLRETTLDPNTRRLVQLTIDDEDDQRTDAMMDMLLAKKRSEDRRNWLQEKGDMAEIEV | 5.85 ± 0.4 h | 6.09 ± 0.22 h | 5.29 ± 1.9 h | 4.41 ± 0.076 h | 3.56 ± 0.24 h | 2.68 ± 0.1 h | 4.78 ± 0.23 h | 7.42 ± 0.43 h | 3.79 ± 0.16 h | 5.867 ± 0.054 h | 3.96 ± 0.39 h | 8.4 ± 0.31 h
6 | MKTSVRIGAFEIDDGELHGESPGDRTLTIPCKSDPDLCMQLDAWDAETSIPALLNGEHSVLYRTRYDQQSDAWIMRLA | 2.16 ± 0.13 h | 1.58 h | 0.651 h | 1.83 ± 1.1 h | 0.479 ± 0.045 h | 1.04 ± 0.18 h | 1.846 ± 0.018 h | 2.06 h | 0.85 h | 0.89 h | 0.882 ± 0.16 h | 1.16 h
7 | MSQLTHINAAGEAHMVDVSAKAETVREARAEAFVTMRSETLAMIIDGRHHKGDVFATARIAGIQAAKRTWDLIPLCHPLMLSKVEVNLQAEPEHNRVRIETLCRLTGKTGVEMEALTAASVAALTIYDMCKAVQKDMVIGPVRLLAKSGGKSGDFKVEADD [P0A738] | 5.289 ± 0.028 h | 5.03 ± 0.15 h | 4.56 ± 0.47 h | 4.41 ± 0.087 h | 3.95 ± 0.17 h | 2.9 ± 0.24 h | 4.96 ± 0.099 h | 8.28 ± 0.49 h | 4.1 ± 0.28 h | 5.91 ± 0.19 h | 4.92 ± 0.059 h | 9.42 ± 0.47 h
